Measured values taken from the domain aggregation screens of Martell et al. (2025).

Assay: soluble fraction after stress (log2 fold change); higher = more stays soluble; pooled small domains, quantitative proteomics
Conditions: stress: 75 degC
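Note: 20 min heating vs room temperature control held 20 min.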

| Sequence | soluble fraction (log2) |
| --- | --- |
| HMEQIFTELIMDGRVLGENLHRMGVDETWLLRQLRQQGYHSAREVFLAVADANKQVAVYPVS | -0.381 |
| HMEQINVTIQTEKGRIDKVLSEHLPNHSRSQIQQWLKEKHVTVNGETVRANYKVTAGDEIVVTIPEPEV | 0.546 |
| HMEQISDEDTLRKMVNEVLDNNQTQLEQYKSGKTNLIGFFVGQTLKKSAGKANPSIVNKLVNEEIYI | 0.141 |
| HMEQISIETRIEQLLARLSETEASGFEELFADTSSRADLITTFLALLEMIRLKLVRVFQDGSFGPIRIYKR | -0.572 |
| HMEQKISVPALVGRDIEEILADTEVTGNFTIKEADKRVASNRPVGEVLEQDPGTGESAVKGTIITVTVSAG | -0.0542 |
| HMEQNTKAYEQVRTLTDLLNQYRHEYYNLSAPSVSDQEYDRLFDALAALEKQTGIVMSNSPTQTVG | 0.0212 |
| HMEQPAPSTTVDILGGGRAALVTANRELGLALADDEIDYLTDSFTQLGRNPVDVELMMFAQA | -0.00398 |
| HMEQSLNTYSIRTVKESLFLAETKNLNKIEKLVEGIEGRLTLSEALVLFSDKLNAMSVLSHVNANT | -0.154 |
| HMEQTIKKYVNVATLNFRSGPSTSYSIISTLSKGTKVEVISTTNNWSKIIYDGKIGYVSSEYLSKSI | -3.07 |
| HMEQVPEAVGRRVRQARSDRGWTLDQLAERSEVSRRMIVNVEAGTSNASIATLLRLATALNVGLAELVA | -1.61 |
| HMEQVVFNGTGRRKSSIARVRIMSGKGNITVNGKALDEYFGEETLKVIVRQPLTVTDTLDKYDVIATVK | 0.0911 |
| HMEQYYVFFAGGMTIGTKEWYESILPENIATSYDDILEGKMMPASLEQIEFYNSHKDYDLYHLFYML | -4.25 |
| HMERAFRILELFDLKQDELPITEIAERTGLPISTAHRLLSTLETLGYIAQNPDNGRYRLGLQTFVLGSR | -1.86 |
| HMERAPAYPDGLTQREVEVLRLIASGKTDREIAEELFIGVRTVSTHVGNILNKTNSANRTEAASYANQQGL | -0.0632 |
| HMEREQNIAQGREVVQRELKRLGLTDVFTVEDIGRALKFDDIDEFLSKVGFGDIQTAKITGAIALMQQALR | -0.0649 |
| HMEREQNIEHGRAIVERELKRLGLSDVYTIADIATALRHDDVDQFLAKIGFGDIQSTQIGGAIAALQQR | 0.0025 |
| HMEREQPFAVTEAYRGMRLDRFLQAMLPRMSRAAIQDAIDNRVRLGSGRAAKASLRPAIGDTVFFGQRI | -1.17 |
| HMERFRQVNAGMTRDDIYQLLGKPTEKTPFPLKNEEVWSWRHQADGQTVALFNIHLDPDGRVTTTSQSMDL | 0.739 |
| HMERFVVISKDKYANLREEASTNSKVLAKVDNSYLIYNTNTYNENKDWYSVQIERDGNYYQVGYIHKSQL | -1.61 |
| HMERLKRVTLSLNQSNYSVTEIARRLQAITGIKDITVVEDEQAVYLKVDPATFDLTLAQQAV | -0.474 |
| HMERLLVSKINGMITEAKVSVEDVVKVVASRGHYPEVKSIDEYPDDFLSRWVVPNFKKIVEMINANKEA | -0.979 |
| HMERMTSTEILTRDFLTTNSKIVKKSTIEELSEIIHVSPATIIRTVKKMGYSGFSEYKNELINQ | -1.73 |
| HMERPEVVAYRLAYASAESLRPALGLVASPSDLEIDERTNTLIVRAVPSVQERVAELVASLDI | -0.492 |
| HMERPKSLRELALEHLRNSIIDGSLKMGQVLSERKISEELGVSKSPVREALAQLRDEGLVSIEPQKGARV | 0.14 |
| HMERPLFVIEDYRRFAGNEVEISLKKGGKKIRGVIAGTPSDAEVTVRTQGGETTVPLGDVKRAHLVYV | -0.00192 |

| Sequence | soluble fraction (log2) |
| --- | --- |
| HMERRDEINSVVSRYVSAITEGKYDLAEVDETGKLRVQTEGREVLPEALSRGTLEQFYFAFRMAVGSI | 0.04 |
| HMERTQSIEAAREQLGEVTKDNVFETETLGALAILKENEPGEYAKIKADLKGKINMNDLERAVKKAAADQR | 1.02 |
| HMERYFVLVIYDIVDNKKRLKLSKYLLGYGIRVQKSAFEMMITKEKYNKLIKELPTYIEEGEDSIRLY | 0.0566 |
| HMERYLLRDNIPNALHGERLDRVIAIMTGLSRSAVSALIKSNQVLRNGQIAQSISEKVVEGDELEVHLEP | -0.832 |
| HMESDAIAAAIAALPARYREVLLLRYDNGFSYSEISKALDMTEAAVRKTVQRAKEALQRTLQIQEEDT | -0.767 |
| HMESDRVAHVVAPGETLFSISGKYGIGMGELVAANPVLESRPPRTGDTLLIRLPENPLPAETDAETLS | 0.643 |
| HMESIAEIDRMNAKIFMDEFQDSLSIMQKTTNPETFFSRYDLAMERLDNMVELQQKGIKFTSDLSSLKAQ | 0.0865 |
| HMESIEGMYKISLLRKQGNAYVIFEDENKEAVEHIFPEKPTALELGTKVIEMFEYKERYDGLI | -0.343 |
| HMESILDDFPGLGEKRKKALLEHFGSISKIKAATVGQLREVDGIGFETAAALREFLDANFPA | 0.188 |
| HMESIPDELLEAFKQDPAFKQAFYALTAGRQRGYIIHFSQPKQSQTRIGRIEKYKEQIFNGIGLN | -1.39 |
| HMESKPLTPSEIKKLRMDANMTQAGLAEVLGMTVKAVEAWESGRNIPSGAADKILRVMQKHPSVIGMMQS | 0.0281 |
| HMESLNDRIKLVFKDSGLTQMDISKRLNIAQSSVSGIISGKANPSKRTLADIADRFDVNLEWLRDGTGPMK | 0.474 |
| HMESLSHRQKSIVDWVQKNGYASIERMAEQFEVSAQTIRRDVIELSERRILQRHHGGASLPAG | -0.211 |
| HMESNDSNIEDDFYEGLKSMRKGDLKMSVVFFTRVIEKKPTFAEAWNRRATVYYMLGKFDKSMFDINETLK | -0.354 |
| HMESPELIHILKEAEWQIWQQIQGLPEKQRIAMTLFAMDDLSYQEIADVMKVSVSAIESLLFRARTQLKKY | -0.546 |
| HMESPLEQLTNRELQTLQMLGKGLSTKQIAAQLNLSVKTVETYRENLKRKLNLDSGSELIRYAIHRSNE | 0.532 |
| HMESPLNPTDVRRAAMDLLARREHGVEELRLKLKRRFGREEDFETIATEQLQRLVDEDLLSDTRF | -0.355 |
| HMESRETGLPVVIISDGRILQDNLKRRGLDLSWLDKQLAEHGYPDFRDVFLLTVDEAGGVYFVPRE | 0.438 |
| HMESSNLESQLKKGIVPNLNGLSAKDALFLLENSGFNVKLYGMGSVKKQSLEAGKKYNKGDKITLIL | 0.151 |
| HMESSYKGFILDIETRQFSPTLIQRRGIAINPSGIVETTTEFSFATQEKVLIEDLKLIIDELDLRADY | -3.69 |
| HMESTLNYSQFLSLVNEDRVAEVVIQGKELYVTDVNRSRFKVYAPPDPELIGLLRQKRVIISAKP | -0.56 |
| HMESVDRIYERVRRYADDVGTAKIPMKELDDDGPLGTAVSRIRERRKRGELTEEWEARFETLPGWTWAA | 0.045 |
| HMESWEDSNIANEFKSTIKIAEKRLAEGGDHPELLEKLEALKQAIINENQTEASKLDDQVNDILFDMDD | 0.602 |
| HMETEAGIKAYLSSSMIKGIGPVTAQRIVERFGKRTLYVLDQMPEKLLDISGISEAKLEEILNGYRKS | -0.536 |
| HMETFGEKDLDELIGRNVELITHDGKVREGLVDSVDRYNVSLVRYLDAGEVAMMVRRREVKAVRLK | -0.703 |
